Like-named read-outs stand apart in the source and are kept apart here.
B1: SipA^α (SipA_(497–669)) (domain or fragment)
chain: NKAGTTDNDNSQTDKTGPFSGLKFKQNSFLSTVPSVTNMHSMHFDARETFLGVIRKALEPDTSTPFPVRRAFDGLRAEILPNDTIKSAALKAQCSDIDKHPELKAKMETLKEVITHHPQKEKLAEIALQFAREAGLTRLKGETDYVLSNVLDGLIGDGSWRAGPAYESYLNKP
B2: SipA^β (SipA_(426–685)) (domain or fragment)
chain: GETTSFDEVDGVTSKSIIGKPVQATVHGVDDNKQQSQTAEIVNVKPLASQLAGVENVKTDTLQSDTTVITGNKAGTTDNDNSQTDKTGPFSGLKFKQNSFLSTVPSVTNMHSMHFDARETFLGVIRKALEPDTSTPFPVRRAFDGLRAEILPNDTIKSAALKAQCSDIDKHPELKAKMETLKEVITHHPQKEKLAEIALQFAREAGLTRLKGETDYVLSNVLDGLIGDGSWRAGPAYESYLNKPGVDRVITTVDGLHMQR

Assays:
[1] = target: T1, F-actin (cryo-EM samples) ( (chicken and rabbit muscle …, UniProt P68139 1-377)); assay: cryo-EM structure
[2] = target: T1, F-actin (cryo-EM samples); assay: cryo-EM structure; remark: listed apart in the source

Row | Binder | stoichiometry N [1] | stoichiometry N [2]
1 | B1 | 0.5 SipA per actin subunit (molar ratio) | 
2 | B2 |  | 0.5 SipA per actin subunit (molar ratio)
